# Substitutions are numbered along the chain they refer to.
# T1: recombinant cynomolgus Nectin-4 (Acro Biosystems) (cynomolgus, UniProt A0A2K5WES1 32-349)
# T1 construct: Bought recombinant antigen used as analyte in SPR; also called Cyno Nectin-4
# T1 sequence: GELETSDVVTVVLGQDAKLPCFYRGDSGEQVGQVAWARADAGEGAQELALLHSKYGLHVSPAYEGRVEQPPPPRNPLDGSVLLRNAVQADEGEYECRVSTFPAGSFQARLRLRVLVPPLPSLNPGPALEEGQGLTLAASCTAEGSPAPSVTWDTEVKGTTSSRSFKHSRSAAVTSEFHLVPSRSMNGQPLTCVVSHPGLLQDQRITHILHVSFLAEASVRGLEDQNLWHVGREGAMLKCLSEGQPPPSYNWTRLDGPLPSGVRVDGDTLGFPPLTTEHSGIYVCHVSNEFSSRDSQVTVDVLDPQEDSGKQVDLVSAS
# T2: recombinant human Nectin-4 (Acro Biosystems) (human, UniProt Q96NY8 32-349)
# T2 construct: Bought recombinant antigen used as analyte in SPR; also called PVRL4
# T2 sequence (looked up): T1 sequence with A39V, V230I
# T3: Nectin-4 on MDA-MB-468 cells (human, UniProt Q96NY8 32-510)
# T3 construct: whole, on cells; also called Nectin-4 (on-cell)
# T3 sequence (looked up): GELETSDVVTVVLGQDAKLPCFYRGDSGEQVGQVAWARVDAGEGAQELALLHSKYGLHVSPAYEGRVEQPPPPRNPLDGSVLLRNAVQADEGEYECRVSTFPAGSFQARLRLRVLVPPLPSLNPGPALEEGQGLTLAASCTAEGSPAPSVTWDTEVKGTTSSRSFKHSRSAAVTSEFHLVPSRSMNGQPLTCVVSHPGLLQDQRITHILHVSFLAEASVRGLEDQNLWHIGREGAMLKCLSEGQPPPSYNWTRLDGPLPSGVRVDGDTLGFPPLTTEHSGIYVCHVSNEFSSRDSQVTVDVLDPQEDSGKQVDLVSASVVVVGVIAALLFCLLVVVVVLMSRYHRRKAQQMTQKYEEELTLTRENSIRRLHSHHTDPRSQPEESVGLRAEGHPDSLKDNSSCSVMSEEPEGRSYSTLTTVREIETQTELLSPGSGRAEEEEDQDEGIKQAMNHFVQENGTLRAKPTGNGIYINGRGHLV
# B1: NTX1105 humanized variant VH4/Vκ4 (antibody, V domains shown)
# VH: QVQLVQSGSELKKPGASVKVSCKASGYTFTSYYIHWVRQAPGQGLEWIGWIYPGNVNTKYNERFKGRVTITADKSTNTAYMELSSLRSEDTAVYYCARSNPYVMDYWGQGTSVTVSS
# VL: DIQMTQSPSTLSASVGDRVTITCRASQSVNNDVAWYQQKPGKAPKLLMYYASNRFTGVPDRFSGSGYGTDFTLTISSLQAEDLAIYFCQQAYRSPYTFGQGTKLEIK
# notes: Humanized IgG
# B2: NTX1105 humanized variant VH4/Vκ3 (antibody, V domains shown)
# VH: B1 VH
# VL: B1 VL with R24K
# notes: Humanized IgG
# B3: NTX1105 humanized variant VH4/Vκ5 (antibody, V domains shown)
# VH: B1 VH
# VL: B1 VL with L83V, I85V
# notes: also called NTX1105 (H4/k5); H4K5
# B4: NTX1105 humanized variant VH5/Vκ5 (antibody, V domains shown)
# VH: B1 VH with I48M, K65Q, N77S
# VL: B1 VL with L83V, I85V
# notes: Humanized IgG; also called H5K5
# B5: NTX1105 humanized variant VH4/Vκ1 (antibody, V domains shown)
# VH: B1 VH
# VL: B1 VL with D1S, Q3V, T10F, S12L, V15A, R24K, K42L, K45E, S63T
# notes: Humanized IgG
# B6: NTX1105 humanized variant VH5/Vκ4 (antibody, V domains shown)
# VH: B1 VH with I48M, K65Q, N77S
# VL: B1 VL
# notes: Humanized IgG
# B7: NTX1105 (VH0/Vκ0) parental chimeric anti-Nectin-4 antibody, clone-11 (VH0/Vκ0)-hIgG1 (antibody, V domains shown)
# VH: QVQLQQSGPELVKPETSVKISCKASGYTFTSYYIHWVKQRPGQGLEWIGWIYPGNVNTKYNERFKGKATLTADKSSNTAHMQLTSLTSEDSAVYFCARSNPYVMDYWGQGTSVTVSS
# VL: SIVMTQTPKFLLVSAGDRVTITCKASQSVNNDVAWYQQKPGLSPELLMYYASNRFTGVPDRFTGSGYGTDFTFTISSVQAEDLAIYFCQQAYRSPYTFGGGTKLEIQR
# notes: Tested from supernatants of transfected cell cultures; also called chimeric antibody; parental mAb
# B8: NTX1105 (H4K5) ADC, conjugated to MMAE at the same DAR as PADCEV (antibody, V domains shown)
# VH: B1 VH
# VL: B1 VL with L83V, I85V
# notes: also called NTX1105-MMAE; NTX1105-MC-VC-PAB-MMAE DAR4
# Biological target: T1, recombinant cynomolgus Nectin-4 (Acro …)
# Assay: SPR, Biacore T200 single cycle kinetics at 25 C, IgG from culture supernatant, Nectin-4 as analyte
# Experimental: (§1) In order to assess the binding of all of the variants to human or cynomolgus Nectin-4 antigen and select lead humanized IgGs with the closest affinity to the chimeric (VH0/Vκ0) antibody, single cycle kinetic was performed on supernatants from transfected cell cultures. Kinetic experiments were performed at 25° C. on a Biacore T200 running Biacore T200Control software V2.0.1 and Evaluation software V3.0 (Cytiva, Marlborough, USA). Single cycle kinetic data was obtained using recombinant human (Acro Biosystems, Newark, USA) or cynomolgus Nectin-4 (Acro Biosystems, Newark, USA) as the analyte injected at a flow rate of 40 μl/min to minimize any potential mass transfer effects. A four point, two-fold dilution range from 1.25 nM to 10 nM of antigen in running buffer was used without regeneration between each concentration. The association phases were monitored for 150 seconds for each of the four injections of increasing concentrations of antigen and a single dissociation phase was measured for 250 seconds following the last injection of antigen (in order to improve fit the dissociation was cropped to 175 seconds for human Nectin-4). Regeneration of the sensor chip surface was conducted using a single injection of 3 M MgCl₂. Based on relative KD from Biacore single cycle kinetics analysis on supernatants, six humanized variants (VH4/Vκ1, VH4/Vκ3, VH4/Vκ4, VH4/Vκ5, VH5/Vκ4 and VH5/Vκ5) were selected as lead IgGs for scaled-up production and purification.
row,Kd [nM],Molecule
1,21.3,B1
2,19.4,B2
3,13.7,B3
4,12.7,B4
5,19.3,B5
6,19.2,B6
7,12.1,B7

# Biological target: T2, recombinant human Nectin-4 (Acro …)
# Assay: as above
# Experimental: as §1
row,Kd [nM],Molecule
1,18,B1
2,15.5,B2
3,12.2,B3
4,11.5,B4
5,15.4,B5
6,17.7,B6
7,10.9,B7

# Biological target: T3, Nectin-4 on MDA-MB-468 cells
# Assay: flow cytometry on MDA-MB-468 cells, 3-fold dilutions from 3 ug/ml, detection with Alexa Fluor 647 Fab goat anti-human IgG (H+L); y axis % Bound
# Experimental: Binding was evaluated on MDA-MB-468 cells. Briefly, 5*10+ cells per well were stained using either PADCEV or NTX1105 conjugated to MMAE at the same DAR as PADCEV. The ADCs were added at concentrations starting 3 μg/ml using 3-fold dilutions. […] After 72 hours, the assay was harvested and tumor cell killing was evaluated using CellTiter-Glo® 2.0 Cell Viability Assay-(Promega G9242).
row,EC50 (read off the curve) [µg/mL],Molecule
1,~0.01,B8

# Biological target: T3, Nectin-4 on MDA-MB-468 cells
# Assay: flow cytometry staining of MDA-MB-468 cells, anti-human IgG Fab Alexa Fluor 647 detection
EC50 [nM],fold stronger EC-50 than NTX1105 conjugated to MMAE [fold],Molecule
0.01,20,Enfortumab-vedotin (PADCEV) (antibody)

# From US20260014269A1 (NECTIN THERAPEUTICS, published 2026)
